According to the supplement of paper PMC10126150:
± gives the standard deviation of the averaged measurements.

The sequences below were run on ATP (assay: switch fluorescence ratio, 500 uM ATP over buffer (Cy3 cluster intensity, sum of 5 cycles each) (fold (ratio)); higher = stronger signal-on switching upon ATP binding; sequences stand for … in TCGTCGGCAGCGTCAGATGTGTATAAGAGACAGTTTTTTTTTTTTTTTTTTTTTTTTT…TC). Conditions: aptamer strand: ATP DNA aptamer (quencher-CACCTGGGGGAGTATTGCGGAGGAAGG + anchor), 100 nM annealed; ATP concentration: 500 uM.
How it was run: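 Cy3-labelled switching-strand clusters on a modified Illumina MiSeq flow-cell were annealed to 100 nM quencher-labelled ATP aptamer and imaged first in selection buffer, then after 15 min with 500 uM ATP at 22 °C. NaOH stripping and re-annealing separated each of five buffer/ATP cycles, and clusters outside 100-1000 RFU were excluded. The fluorescence ratio sums target-cycle Cy3 intensity over buffer-cycle Cy3 intensity per cluster and averages it per switch-domain sequence.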
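Also: ATP exposure 15 min at 22 °C before imaging.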

TTAGGGATGG and GGTAGACCGC are within error of each other in switch fluorescence ratio: 0.992 ± 0.023 for the first, 0.987 ± 0.053 for the second.

TCGTCGTCCT and CAGAGCCATA are within error of each other in switch fluorescence ratio: 1.02 ± 0.024 for the first, 1.05 ± 0.013 for the second.

ATTGTAGGAC and CCAATGAGTG are the same in switch fluorescence ratio: 1.01 ± 0.036 for the first, 1.01 ± 0.023 for the second.

TTGGGAGGGT and ACAGAGAAAT are within error of each other in switch fluorescence ratio: 0.999 ± 0.029 for the first, 1.03 ± 0.036 for the second.

GAAAATGCAG and GTGGCGGTTT are within error of each other in switch fluorescence ratio: 0.999 ± 0.062 for the first, 0.995 ± 0.044 for the second.

CGGGGACGGA and TTATTATTGT are within error of each other in switch fluorescence ratio: 1.02 ± 0.029 for the first, 0.982 ± 0.037 for the second.

CATTGGTGGG and ATGTGGGTTA are within error of each other in switch fluorescence ratio: 0.977 ± 0.028 for the first, 1.01 ± 0.022 for the second.

TCGTTGTCGT and ATGGGGTAGG are within error of each other in switch fluorescence ratio: 1.04 ± 0.03 for the first, 0.995 ± 0.022 for the second.

GAAATTGTTT and ATAGGGAGTG are within error of each other in switch fluorescence ratio: 0.991 ± 0.015 for the first, 0.996 ± 0.043 for the second.

TCGTTCATGA and GGGTTTTCCA are within error of each other in switch fluorescence ratio: 1 ± 0.061 for the first, 1.01 ± 0.021 for the second.

GGTGGTCGGT and ACTATGTGTG are within error of each other in switch fluorescence ratio: 0.9787 ± 0.0066 for the first, 0.99 ± 0.031 for the second.

TCTTTTGGCA and CGATCATAGG are within error of each other in switch fluorescence ratio: 1.1 ± 0.078 for the first, 1.01 ± 0.049 for the second.

Going from GTTTTCATGG to TACGGCAGGG, the switch fluorescence ratio rises from 0.996 ± 0.013 to 1.059 ± 0.0024.

First: CTAATTTTGT
Second: TAAAACCTGA
The switch fluorescence ratio of the first is lower: 0.995 ± 0.014 for the first, 1.17 ± 0.054 for the second.

First: TCGAGCGCAC
Second: GAAGGGTAGC
The switch fluorescence ratio of the first is higher: 2.54 ± 0.34 for the first, 0.996 ± 0.037 for the second.

CGTGCTGGTG and GAAGGGGGGA are within error of each other in switch fluorescence ratio: 1.03 ± 0.022 for the first, 0.985 ± 0.034 for the second.

First: ATTCCTCTAG
Second: AGGGGGGTAA
The switch fluorescence ratio of the first is higher: 1.318 ± 0.0041 for the first, 0.993 ± 0.026 for the second.

TTTCCTGGTA and ACCTGGAATT are within error of each other in switch fluorescence ratio: 0.9817 ± 0.0073 for the first, 1.01 ± 0.031 for the second.

TCAATAATGA and TCTCGGGTTT are within error of each other in switch fluorescence ratio: 1.02 ± 0.027 for the first, 0.9951 ± 0.0055 for the second.

AGATCTAAGG and ATTGAATTGT are within error of each other in switch fluorescence ratio: 1 ± 0.019 for the first, 0.991 ± 0.037 for the second.

GACTAAAAGA and ATGATATTAG are within error of each other in switch fluorescence ratio: 0.99 ± 0.055 for the first, 1.004 ± 0.0066 for the second.

Compared with AAAGTGATGT, TCTCCGTCCT is higher in switch fluorescence ratio: 0.969 ± 0.02 for the first, 1.33 ± 0.025 for the second.

GGTCTAGCCT and AGCCTACTTT are within error of each other in switch fluorescence ratio: 0.9858 ± 0.0066 for the first, 1 ± 0.038 for the second.

GGTAGGGAAT and ATGGTAGG are within error of each other in switch fluorescence ratio: 0.974 ± 0.029 for the first, 0.9749 ± 0.0017 for the second.

First: GGGGTACGTG
Second: TTTCCTTGCC
The switch fluorescence ratio of the first is lower: 1 ± 0.029 for the first, 1.19 ± 0.024 for the second.

ACTAATCGAA and AAACCAAACT are within error of each other in switch fluorescence ratio: 1.05 ± 0.013 for the first, 1.34 ± 0.31 for the second.

AAAGGGGGCT and GTTGAATATG are within error of each other in switch fluorescence ratio: 0.9912 ± 0.0026 for the first, 1.01 ± 0.029 for the second.

Compared with TCGGACGGGT, TTCACTCCGG is higher in switch fluorescence ratio: 1.02 ± 0.025 for the first, 1.2 ± 0.071 for the second.

TATTGAAGGT and GGGTTTTTGC are within error of each other in switch fluorescence ratio: 1.026 ± 0.0075 for the first, 1.04 ± 0.045 for the second.

CTGAAGGGCG and TTTGATCTTT are within error of each other in switch fluorescence ratio: 0.979 ± 0.044 for the first, 1.01 ± 0.035 for the second.

GGTATCTAGT and TGTTGTAGTG are within error of each other in switch fluorescence ratio: 1.02 ± 0.032 for the first, 0.973 ± 0.017 for the second.

Going from GCTGACGGGT to TTTCCGATGA, the switch fluorescence ratio rises from 0.976 ± 0.018 to 1.08 ± 0.032.

First: AGGTCCAGGT
Second: GAATCCGCCC
The switch fluorescence ratio of the first is lower: 1.262 ± 0.0015 for the first, 2.85 ± 0.74 for the second.

GAATGGAGAA and TGCAAGTGGC are within error of each other in switch fluorescence ratio: 0.992 ± 0.078 for the first, 1.09 ± 0.15 for the second.

GTTTGTTTAC and GGTTTGCGGC are within error of each other in switch fluorescence ratio: 0.987 ± 0.014 for the first, 0.994 ± 0.036 for the second.

GGATCCGGGA and AGGGTGGTTG are within error of each other in switch fluorescence ratio: 1.0104 ± 2.5e-05 for the first, 0.987 ± 0.058 for the second.

Going from TATCACGGTA to CGGGAAATCC, the switch fluorescence ratio falls from 1.176 ± 0.011 to 1.042 ± 0.0085.

First: TGCTGGTAGC
Second: ACGGTGTTAC
The switch fluorescence ratio of the first is lower: 0.995 ± 0.042 for the first, 1.11 ± 0.027 for the second.

First: CGCATCAACG
Second: CGGCACCCGT
The switch fluorescence ratio of the first is higher: 1.18 ± 0.087 for the first, 0.9653 ± 0.0078 for the second.

TAGAGAATAT and TTATTTTTTA are within error of each other in switch fluorescence ratio: 0.992 ± 0.026 for the first, 0.993 ± 0.028 for the second.

TGGAAGATGT and TGGCGTAGTA are within error of each other in switch fluorescence ratio: 1.02 ± 0.03 for the first, 1.01 ± 0.051 for the second.

TAATGCTTGG and TTTATGGGCA are within error of each other in switch fluorescence ratio: 1.01 ± 0.031 for the first, 1.04 ± 0.05 for the second.

GCGAGTGTAC and TGGGAAGAAT are within error of each other in switch fluorescence ratio: 0.983 ± 0.094 for the first, 0.99323 ± 0.00037 for the second.

TGATGGATAT and GGGGCTTGGT are within error of each other in switch fluorescence ratio: 0.9921 ± 0.0021 for the first, 1.01 ± 0.034 for the second.

AGAGGTGCAT and TTTATTACAT are within error of each other in switch fluorescence ratio: 1.02 ± 0.017 for the first, 0.996 ± 0.014 for the second.

GAATTACGGG and GGGAAAGGCG are within error of each other in switch fluorescence ratio: 1.02 ± 0.023 for the first, 0.983 ± 0.042 for the second.

TGTGTCAGAC and GGGCCTTTAG are within error of each other in switch fluorescence ratio: 1.01 ± 0.03 for the first, 1.02 ± 0.033 for the second.

ATGGGCGGCG and TCATTGTGGG are within error of each other in switch fluorescence ratio: 0.993 ± 0.021 for the first, 0.9799 ± 0.00084 for the second.

ATAGGTTGGG and TTCTGTTTTG are within error of each other in switch fluorescence ratio: 0.996 ± 0.03 for the first, 1.01 ± 0.029 for the second.

GATGGAGTTA and AATTTTTTGG are within error of each other in switch fluorescence ratio: 1.01 ± 0.047 for the first, 1 ± 0.046 for the second.

TAAAGAGGTA and AGGGTCTCCG are within error of each other in switch fluorescence ratio: 1.02 ± 0.013 for the first, 1 ± 0.062 for the second.

Going from TTTCGATCTC to TGGCTAGATA, the switch fluorescence ratio falls from 1.028 ± 0.0026 to 0.973 ± 0.041.

TGGGATGCGT and TGGTAATGGT are within error of each other in switch fluorescence ratio: 0.988 ± 0.015 for the first, 1.03 ± 0.074 for the second.

TTCATGCATC and GGGCATCATG are within error of each other in switch fluorescence ratio: 1.83 ± 1.2 for the first, 1.04 ± 0.011 for the second.

ATAACACATG and AATGTGCCGG are the same in switch fluorescence ratio: 1.01 ± 0.032 for the first, 1.01 ± 0.019 for the second.

First: TTGCTGGGTG
Second: GTTACTGTGG
The switch fluorescence ratio of the first is higher: 1.1 ± 0.056 for the first, 0.9663 ± 0.005 for the second.

TAAATATTAG and AGGACTGGCA are within error of each other in switch fluorescence ratio: 0.9837 ± 0.0031 for the first, 0.991 ± 0.038 for the second.

Going from CATGTGGGGA to GCATAGGTTA, the switch fluorescence ratio falls from 1.021 ± 0.004 to 1 ± 0.015.

GTCTTTTGTG and GAAATTGCGG are within error of each other in switch fluorescence ratio: 1.31 ± 0.43 for the first, 0.989 ± 0.024 for the second.

GGTTTTAAAA and GTGGTACGTG are within error of each other in switch fluorescence ratio: 0.99 ± 0.013 for the first, 1 ± 0.064 for the second.

AGCTGTGTGG and AGCGCGGTAA are within error of each other in switch fluorescence ratio: 1.01 ± 0.012 for the first, 1 ± 0.013 for the second.

AGGTAAATGT and CTTATTTGAT are within error of each other in switch fluorescence ratio: 0.972 ± 0.023 for the first, 0.975 ± 0.01 for the second.

Compared with AAAGCGAGTC, ATTTGCGGAG is lower in switch fluorescence ratio: 1.021 ± 0.01 for the first, 1.002 ± 0.0057 for the second.

TAGATAGTTT and AGGCCGGCAA are within error of each other in switch fluorescence ratio: 0.981 ± 0.029 for the first, 1.02 ± 0.045 for the second.

Going from AAGTAGTGGT to ATGCTACCAT, the switch fluorescence ratio rises from 0.979 ± 0.025 to 1.05 ± 0.022.

Going from GTAATATGTG to ACCGGGGGCC, the switch fluorescence ratio rises from 0.991 ± 0.013 to 1.02 ± 0.013.

AAAAGGGAGA and AGTGGCGTGT are within error of each other in switch fluorescence ratio: 1.01 ± 0.013 for the first, 0.988 ± 0.022 for the second.

AGTGGGGTTT and TTGGTGGACA are the same in switch fluorescence ratio: 0.976 ± 0.013 for the first, 0.976 ± 0.026 for the second.

AAATTTAGCA and AGGCTCGTAC are within error of each other in switch fluorescence ratio: 0.99 ± 0.052 for the first, 1.08 ± 0.09 for the second.

GCGGAGTTGT and CGAAGTGGGG are within error of each other in switch fluorescence ratio: 1.02 ± 0.035 for the first, 1.01 ± 0.026 for the second.

ATGATCAACG and ATCGGCGCGC are within error of each other in switch fluorescence ratio: 0.999 ± 0.015 for the first, 0.9957 ± 0.0026 for the second.

Compared with GGGCACTTTG, CTCGGATAAG is lower in switch fluorescence ratio: 1.0204 ± 0.00091 for the first, 0.9922 ± 0.007 for the second.

GCCTTTAGGG and GAGGGGGACG are the same in switch fluorescence ratio: 1 ± 0.024 for the first, 1 ± 0.14 for the second.

First: TAACATACAT
Second: ACTCGGCTTG
The switch fluorescence ratio of the first is higher: 1.18 ± 0.11 for the first, 1.03 ± 0.023 for the second.

TTATTTAGAG and TTTGGTGCCG are within error of each other in switch fluorescence ratio: 0.985 ± 0.027 for the first, 1.17 ± 0.23 for the second.

CAAAGGAGGT and GCTGTAGGCG are within error of each other in switch fluorescence ratio: 1.03 ± 0.096 for the first, 0.988 ± 0.015 for the second.

TGGGTTGCGT and TCGGGTAGTT are within error of each other in switch fluorescence ratio: 1.01 ± 0.017 for the first, 1.04 ± 0.055 for the second.

GTGTCTCCAG and GAGTTACAGG are within error of each other in switch fluorescence ratio: 1.03 ± 0.049 for the first, 1.04 ± 0.022 for the second.

Sequence GGAACGAGAG has a switch fluorescence ratio of 0.989 ± 0.03.
